Data reported in CN117069831A (SHENZHEN BGI LIFE SCIENCE RES INSTITUTE, dated 2023).

Assays:
野生型SARS-CoV-2 S1抗原 = biological target: T1, 野生型SARS-CoV-2 S1抗原 (SARS-CoV-2, UniProt P0DTC2 16-685); experiment: SPR, Biacore T200, antigen coupled to CM5 chip, nanobody as analyte
T1 construct: domain: S1; also called SARS-CoV-2S1野生型; S1抗原(义翘)

非典SARS-CoV-1 spike RBD = biological target: T2, 非典SARS-CoV-1 spike RBD (SARS-CoV-1, UniProt P59594 306-527); experiment: ELISA on coated antigen, anti HA HRP
T2 construct: domain: RBD; also called 非典病毒RBD; 非典SARS-CoV-1RBD

Binder	Kd (野生型SARS-CoV-2 S1抗原) [nM]	EC50 (非典SARS-CoV-1 spike RBD) [nM]
R-30 (VHH, also called 第一株RBD纳米抗体R-30) VHH: QVQLQESGGGLVQSGGSLRLSCTASGGIIRLNSMGWYRQAPGKQREPVATIVSDVGTNYADSVKGRFTISRDNAKNTIYLQMNSLKFEDTAVYYCVADRAFVLRGEYEYWGQGTQVTVSS	~0.1	14.7
S1-24 (VHH, also called 第四株RBD纳米抗体S1-24) VHH: QVQLQESGGGLVQSGGSLRLSCAASGGVSRLNSMGWYRQAQGKQRELVATIVNDVGTNYADSVKGRFTISRDNAANTVYLLMNSLKFEDTAVYNCVADRAFVLRGEYEYWGQGTQVTVSS	~0.1	49.3
S1-28 (VHH, also called 第二株RBD纳米抗体S1-28) VHH: QVQLQESGGGLVQPGGSLRLSCTASGGIIRLNSMGWYRQAPGKQREPVATIVSDVGTNYADSVKGRFTISRDNAKNTIYLQMNSPKFEDTAVYYCVADRAFVLRGEYEYWGQGTQVTVSS	~0.1	11.4
S1-51 (VHH, also called 第三株RBD纳米抗体S1-51) VHH: QVQLQESGGGLVQSGGSLRLSCAASGGVSRLNSMGWYRQAPGKQRELVATIISDVGTNYADSVKGRFTISRDNAANTVYLQMNSLKFEDTAVYYCVADRAFVLRGEYEYWGQGTQVTVSS	~0.1	19.2
